This data set can be described thus: self-splicing fitness, log relative to wild type (ln ratio); higher = more splicing; Tetrahymena group I intron in knt gene, E. coli kanamycin selection, DiMSum; sequences stand for … in CUCUCU…GGAGGGAAAAGUUAUCAGGCAUGCACCUGGUAGCUAGUCUUUAAACCAAUAGAUUGCAUCGGUUUAAAAGGCAAGACCGUCAAAUUGCGGGAAAGGGGUCAACAGCCGUUCAGUACCAAGUCUCAGGGGAAACUUUGAGAUGGCCUUGCAAAGGGUAUGGUAAUAAGCUGACGGACAUGGUCCUAACCACGCAGCCAAGUCCUAAGUCAACAGAUCUUCUGUUGAUAUGGAUGCAGUUCACAGACUAAAUGUCGGUCGGGGAAGAUGUAUUCUUCUCAUAAGAUAUAGUCGGACCUCUCCUUAAUGGGAGCUAGCGGAUGAAGUGAUGCAACACUGGAGCCGCUGGGAACUAAUUUGUAUGCGAAAGUAUAUUGAUUAGUUUUGGAGUACUCGUGGUCG
In short, it runs like this: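 DiMSum derived fitness as the error-weighted combination of fold changes across replicates, kanamycin versus no kanamycin, normalised to wild type. E. coli BL21(DE3) held the library, which randomised all eight P1ex-region intron nucleotides within the knt kanamycin-resistance gene on pET-22b(+). Six replicate transformations grew overnight at 37°C or 30°C on LB agar with or without 25 μg/mL kanamycin, also containing 100 μg/mL carbenicillin, 50 μM IPTG and 0.2% rhamnose, and pooled colonies were amplicon-sequenced on an Illumina HiSeq 2500.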

± gives the uncertainty stated by the source.

Consider GUACAGCAAUAUUACGAUCG, for which the “self-splicing fitness (ln)” value was -1.67 ± 0.12 (30 °C) and -0.932 ± 0.16 (37 °C). For GUACAGCAAUAUUACGCACU, in that order: -0.597 ± 0.13 and -1.16 ± 0.24. The matching figures for GUACAGCAAUAUUACGCAGG: -3.44 ± 0.23 and -1.93 ± 0.19. The matching figures for GUACAGCAAUAUUACGCAUA: -2.65 ± 0.15 and -1.56 ± 0.11. For the sequence GUACAGCAAUAUUACGCCCU, the “self-splicing fitness (ln)” value reads like this: (30 °C) -1.64 ± 0.34; (37 °C) -0.525 ± 0.32. For GUACAGCAAUAUUACGCUCA, in that order: -1.07 ± 0.091 and -0.188 ± 0.11. The matching figures for GUACAGCAAUAUUACGGCUA: 0.707 ± 0.15 and 0.282 ± 0.12. As for GUACAGCAAUAUUACGGGGA, the “self-splicing fitness (ln)” value runs as follows: (30 °C) -3.21 ± 0.25; (37 °C) -2.33 ± 0.19. GUACAGCAAUAUUACGGGUA: the “self-splicing fitness (ln)” value reads like this: (30 °C) -2.08 ± 0.13; (37 °C) -1.93 ± 0.15. For GUACAGCAAUAUUACGGUGA, in that order: -1.75 ± 0.14 and -0.943 ± 0.12. For GUACAGCAAUAUUACGGUGG, in that order: -2.22 ± 0.1 and -1.63 ± 0.11. As for GUACAGCAAUAUUACGUACG, the “self-splicing fitness (ln)” value by setting is: (30 °C) -4.18 ± 0.31; (37 °C) -2.2 ± 0.19. For GUACAGCAAUAUUACGUAUG, in that order: -2.52 ± 0.086 and -1.45 ± 0.091.

GUACAGCAAUAUUACGUGAC: the “self-splicing fitness (ln)” value is, setting by setting: (30 °C) -2.8 ± 0.18; (37 °C) -0.577 ± 0.16. In the case of GUACAGCAAUAUUACGUGAU, the “self-splicing fitness (ln)” value is, setting by setting: (30 °C) -2.88 ± 0.07; (37 °C) -0.556 ± 0.07. GUACAGCAAUAUUACGUUAA: the “self-splicing fitness (ln)” value (30 °C) is -2.28 ± 0.12 and the “self-splicing fitness (ln)” value (37 °C) is -1.98 ± 0.15. The matching figures for GUACAGCAAUAUUACGUUGU: -3.27 ± 0.15 and -1.99 ± 0.15. For GUAGAGCAAUAUUACGACCC, in that order: 0.536 ± 0.15 and 0.745 ± 0.18. GUAGAGCAAUAUUACGAGAC: the “self-splicing fitness (ln)” value (30 °C) was -3.02 ± 0.42. Regarding GUAGAGCAAUAUUACGAGAU, the “self-splicing fitness (ln)” value is, setting by setting: (30 °C) -4.13 ± 0.23; (37 °C) -0.661 ± 0.16. The matching figures for GUAGAGCAAUAUUACGAUCA: -1.28 ± 0.23 and -0.907 ± 0.24. As to GUAGAGCAAUAUUACGAUUC, the “self-splicing fitness (ln)” value reads like this: (30 °C) -0.192 ± 0.1; (37 °C) 0.716 ± 0.14. The matching figures for GUAGAGCAAUAUUACGAUUG: -2.82 ± 0.16 and -2.4 ± 0.2. Regarding GUAGAGCAAUAUUACGCCUA, the “self-splicing fitness (ln)” value (30 °C) was -1.39 ± 0.26 and the “self-splicing fitness (ln)” value (37 °C) is -1.18 ± 0.24. For GUAGAGCAAUAUUACGCUGA, in that order: -2.33 ± 0.11 and -1.15 ± 0.14.

For the sequence GUAGAGCAAUAUUACGGAAU, the “self-splicing fitness (ln)” value (30 °C) was -2.36 ± 0.084 and the “self-splicing fitness (ln)” value (37 °C) is -1.18 ± 0.096. The matching figures for GUAGAGCAAUAUUACGGCCA: -0.643 ± 0.098 and -0.417 ± 0.17. The matching figures for GUAGAGCAAUAUUACGGCUU: -0.97 ± 0.075 and -0.03 ± 0.12. For the sequence GUAGAGCAAUAUUACGGGAG, the “self-splicing fitness (ln)” value (30 °C) is -3.15 ± 0.47 and the “self-splicing fitness (ln)” value (37 °C) was -1.85 ± 0.38. For GUAGAGCAAUAUUACGGGGA, in that order: -3.54 ± 0.25 and -1.16 ± 0.29. For GUAGAGCAAUAUUACGGGUC, in that order: -2.19 ± 0.12 and -1.37 ± 0.12.

Consider GUAGAGCAAUAUUACGUAUC, for which the “self-splicing fitness (ln)” value is -2.44 ± 0.12 (30 °C) and -1.58 ± 0.13 (37 °C). The matching figures for GUAGAGCAAUAUUACGUCGA: -3.08 ± 0.17 and -0.919 ± 0.2. The matching figures for GUAGAGCAAUAUUACGUGGU: -3.09 ± 0.28 and -3.52 ± 0.3. The matching figures for GUAGAGCAAUAUUACGUGUA: -2.77 ± 0.2 and -2.53 ± 0.28. For the sequence GUAGAGCAAUAUUACGUUAC, the “self-splicing fitness (ln)” value runs as follows: (30 °C) -2.63 ± 0.18; (37 °C) -0.785 ± 0.14. Regarding GUAGAGCAAUAUUACGUUCC, the “self-splicing fitness (ln)” value is -1.77 ± 0.14 (30 °C) and -0.881 ± 0.18 (37 °C).

Consider GUAGAGCAAUAUUACGUUUU, for which the “self-splicing fitness (ln)” value runs as follows: (30 °C) -2.47 ± 0.16; (37 °C) -1.36 ± 0.18. The matching figures for GUAUAGCAAUAUUACGACCG: -2.97 ± 0.35 and -0.999 ± 0.26. The matching figures for GUAUAGCAAUAUUACGACGG: -4.18 ± 0.37 and -2.33 ± 0.35. For GUAUAGCAAUAUUACGAGCU, in that order: -2.42 ± 0.27 and -1.61 ± 0.3. Take GUAUAGCAAUAUUACGAUAU: the “self-splicing fitness (ln)” value (30 °C) is -2.87 ± 0.32 and the “self-splicing fitness (ln)” value (37 °C) is -0.832 ± 0.36. The matching figures for GUAUAGCAAUAUUACGAUCC: -0.716 ± 0.18 and 1.03 ± 0.22. The matching figures for GUAUAGCAAUAUUACGAUUA: -1.14 ± 0.16 and -1.4 ± 0.15.

Consider GUAUAGCAAUAUUACGCAAG, for which the “self-splicing fitness (ln)” value reads like this: (30 °C) -3.76 ± 0.4; (37 °C) -1.64 ± 0.25. For GUAUAGCAAUAUUACGCAUA, the “self-splicing fitness (ln)” value is -2.3 ± 0.28 (30 °C) and -0.525 ± 0.27 (37 °C). For GUAUAGCAAUAUUACGCCUC, in that order: -1.32 ± 0.21 and -0.746 ± 0.27. For GUAUAGCAAUAUUACGCGUA, in that order: -2.69 ± 0.29 and -1.41 ± 0.22.

Consider GUAUAGCAAUAUUACGCUAG, for which the “self-splicing fitness (ln)” value (30 °C) was -2.46 ± 0.43 and the “self-splicing fitness (ln)” value (37 °C) is -0.609 ± 0.3. For GUAUAGCAAUAUUACGCUUG, the “self-splicing fitness (ln)” value by setting is: (30 °C) -1.72 ± 0.16; (37 °C) -1.41 ± 0.26. For GUAUAGCAAUAUUACGCUUU, in that order: -3.51 ± 0.24 and -2.28 ± 0.17. The matching figures for GUAUAGCAAUAUUACGGAAU: -2.27 ± 0.23 and -2.39 ± 0.21. In the case of GUAUAGCAAUAUUACGGAUC, the “self-splicing fitness (ln)” value reads like this: (30 °C) -0.654 ± 0.14; (37 °C) -0.016 ± 0.17. For GUAUAGCAAUAUUACGGCUA, in that order: -0.758 ± 0.13 and -0.383 ± 0.11. For GUAUAGCAAUAUUACGGGAC, in that order: -2.88 ± 0.34 and -1.07 ± 0.2. As to GUAUAGCAAUAUUACGGGUC, the “self-splicing fitness (ln)” value (30 °C) was -1.89 ± 0.2 and the “self-splicing fitness (ln)” value (37 °C) is -1.62 ± 0.39.

With GUAUAGCAAUAUUACGGUGG, the “self-splicing fitness (ln)” value is -2.54 ± 0.1 (30 °C) and -2.63 ± 0.17 (37 °C).

As for GUAUAGCAAUAUUACGUAAA, the “self-splicing fitness (ln)” value by setting is: (30 °C) -2.75 ± 0.31; (37 °C) -1.66 ± 0.31. The matching figures for GUAUAGCAAUAUUACGUAUU: -4.14 ± 0.37 and -1.44 ± 0.2. The matching figures for GUAUAGCAAUAUUACGUCUU: -1.64 ± 0.14 and 0.0317 ± 0.13. The matching figures for GUAUAGCAAUAUUACGUGCA: -0.903 ± 0.19 and -0.516 ± 0.18.

In the case of GUAUAGCAAUAUUACGUGGG, the “self-splicing fitness (ln)” value was -3.28 ± 0.16 (30 °C) and -1.88 ± 0.14 (37 °C).

For GUCAAGCAAUAUUACGAAAC, the “self-splicing fitness (ln)” value was -1.37 ± 0.27 (30 °C) and 0.108 ± 0.3 (37 °C). As for GUCAAGCAAUAUUACGAAGA, the “self-splicing fitness (ln)” value (30 °C) is -3.88 ± 0.28. With GUCAAGCAAUAUUACGACUG, the “self-splicing fitness (ln)” value is -4.59 ± 0.27 (30 °C) and -4.75 ± 0.45 (37 °C).

In the case of GUCAAGCAAUAUUACGAGAU, the “self-splicing fitness (ln)” value runs as follows: (30 °C) -5.3 ± 0.38; (37 °C) -3.28 ± 0.2. The matching figures for GUCAAGCAAUAUUACGAGCC: -4.32 ± 0.25 and -2.26 ± 0.26. As for GUCAAGCAAUAUUACGAUCU, the “self-splicing fitness (ln)” value by setting is: (30 °C) -2.31 ± 0.067; (37 °C) -1.04 ± 0.068. On to GUCAAGCAAUAUUACGAUUG, for which, for the setting “37 °C”, the “self-splicing fitness (ln)” value is -3.59 ± 0.34. With GUCAAGCAAUAUUACGCAAU, the “self-splicing fitness (ln)” value (30 °C) is -2 ± 0.061 and the “self-splicing fitness (ln)” value (37 °C) was -1.32 ± 0.076. The matching figures for GUCAAGCAAUAUUACGCACA: -1.21 ± 0.12 and -0.776 ± 0.13.

For the sequence GUCAAGCAAUAUUACGCCGA, the “self-splicing fitness (ln)” value is -3.33 ± 0.45 (30 °C) and -1.08 ± 0.18 (37 °C). The matching figures for GUCAAGCAAUAUUACGCGGU: -3.16 ± 0.39 and -1.82 ± 0.31. For GUCAAGCAAUAUUACGGAUG, in that order: -2.64 ± 0.12 and -0.795 ± 0.11. The matching figures for GUCAAGCAAUAUUACGGGGC: -5.02 ± 0.45 and -3.14 ± 0.27.

For the origin of these results see the supplement of paper PMC7877785.
